Test results taken from paper PMC6508567.

What was measured:
[1] = molecular target: serpin Z4 (barley (Hordeum vulgare) cv. Harrington) (UniProt P06293); experiment: SPR; serpin Z4 immobilised by amine coupling on a CM5 chip, β-amylase injected at 2, 0.9, 0.4, 0.2 and 0.1 μM; PBS; Biacore T200
[2] = molecular target: serpin Z4 (barley (Hordeum vulgare) cv. Harrington) (UniProt P06293); experiment: MST; serpin Z4 labelled with an NHS-ester fluorescent dye (70 nM), unlabelled β-amylase from 16 μM to 0.5 nM; PBS with 0.1% Tween-20; Monolith NT.115; three replicates combined

serpin Z4 (barley (Hordeum vulgare) cv. Harrington), sequence (P06293 whole entry): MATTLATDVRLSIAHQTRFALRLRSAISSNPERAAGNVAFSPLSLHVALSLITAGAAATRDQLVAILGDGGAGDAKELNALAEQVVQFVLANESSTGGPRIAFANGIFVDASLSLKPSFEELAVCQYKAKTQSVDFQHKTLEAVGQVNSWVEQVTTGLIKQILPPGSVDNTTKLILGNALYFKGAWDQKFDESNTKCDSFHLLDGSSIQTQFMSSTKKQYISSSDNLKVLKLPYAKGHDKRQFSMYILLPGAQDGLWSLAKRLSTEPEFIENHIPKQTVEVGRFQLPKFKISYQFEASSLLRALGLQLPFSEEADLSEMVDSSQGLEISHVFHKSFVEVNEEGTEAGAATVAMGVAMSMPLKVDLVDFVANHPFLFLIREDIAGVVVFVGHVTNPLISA

“β-amylase WT (from UniProt P16098 1-535) (enzyme)” gave a Kd [1] of 316 nM and a Kd [2] of 100 nM.
